Assay results published in the RNAGym collection of RNA variant scans (doi:10.1021/acssynbio.7b00057).

B1: Pistol ribozyme (parent)
chain: GGGUCGUUGUUCCAUAAUCGCGUGGAUAUGGCACGCAAGUUUCUACCGGGCACCGUAAAUGUCCGACUGGAGCCGUUCGGGCGGCUAUAAACAGACCUCAGGCCCGAAGCGUGGCGGCACCUGCCGCCGGUGGUAAAAAAGAUCGGAAGAGCACACGUCU

Variants of: B1
Experiment: aptazyme ON/OFF ratio, guanine; higher = stronger switching; co-transcriptional cleavage with and without guanine

Variant | aptazyme ON/OFF ratio
GGGUCGGGUCCCAAUAAUCGCGUGGAUAUGGCACGCAAGUUUCUACCGGGCACCGUAAAUGUCCGACUGGAGCCGUUCGGGCGGCUAUAAACAGACCUCAGGCCCGAAGCGUGGCGGCACCUGCCGCCGGUGGUAAAAAAGAUCGGAAGAGCACACGUCU [U7G U8G G9U U10C U11C C13A] | 1.28
GGGUCGGGUCAGCAUAAUCGCGUGGAUAUGGCACGCAAGUUUCUACCGGGCACCGUAAAUGUCCGACUGGAGCCGUUCGGGCGGCUAUAAACAGACCUCAGGCCCGAAGCGUGGCGGCACCUGCCGCCGGUGGUAAAAAAGAUCGGAAGAGCACACGUCU [U7G U8G G9U U10C U11A C12G] | 1.25
GGGUCGGGUCAUCAUAAUCGCGUGGAUAUGGCACGCAAGUUUCUACCGGGCACCGUAAAUGUCCGACUGGAGCCGUUCGGGCGGCUAUAAACAGACCUCAGGCCCGAAGCGUGGCGGCACCUGCCGCCGGUGGUAAAAAAGAUCGGAAGAGCACACGUCU [U7G U8G G9U U10C U11A C12U] | 1.28
GGGUCGGGUCAACAUAAUCGCGUGGAUAUGGCACGCAAGUUUCUACCGGGCACCGUAAAUGUCCGACUGGAGCCGUUCGGGCGGCUAUAAACAGACCUCAGGCCCGAAGCGUGGCGGCACCUGCCGCCGGUGGUAAAAAAGAUCGGAAGAGCACACGUCU [U7G U8G G9U U10C U11A C12A] | 1.28
GGGUCGGGUCUCAAUAAUCGCGUGGAUAUGGCACGCAAGUUUCUACCGGGCACCGUAAAUGUCCGACUGGAGCCGUUCGGGCGGCUAUAAACAGACCUCAGGCCCGAAGCGUGGCGGCACCUGCCGCCGGUGGUAAAAAAGAUCGGAAGAGCACACGUCU [U7G U8G G9U U10C C13A] | 1.43
GGGUCGGGUCUCGAUAAUCGCGUGGAUAUGGCACGCAAGUUUCUACCGGGCACCGUAAAUGUCCGACUGGAGCCGUUCGGGCGGCUAUAAACAGACCUCAGGCCCGAAGCGUGGCGGCACCUGCCGCCGGUGGUAAAAAAGAUCGGAAGAGCACACGUCU [U7G U8G G9U U10C C13G] | 1.31
GGGUCGGGUCUCUAUAAUCGCGUGGAUAUGGCACGCAAGUUUCUACCGGGCACCGUAAAUGUCCGACUGGAGCCGUUCGGGCGGCUAUAAACAGACCUCAGGCCCGAAGCGUGGCGGCACCUGCCGCCGGUGGUAAAAAAGAUCGGAAGAGCACACGUCU [U7G U8G G9U U10C C13U] | 1.28
GGGUCGGGUCCUGAUAAUCGCGUGGAUAUGGCACGCAAGUUUCUACCGGGCACCGUAAAUGUCCGACUGGAGCCGUUCGGGCGGCUAUAAACAGACCUCAGGCCCGAAGCGUGGCGGCACCUGCCGCCGGUGGUAAAAAAGAUCGGAAGAGCACACGUCU [U7G U8G G9U U10C U11C C12U C13G] | 1.41
GGGUCGGGUCCUAAUAAUCGCGUGGAUAUGGCACGCAAGUUUCUACCGGGCACCGUAAAUGUCCGACUGGAGCCGUUCGGGCGGCUAUAAACAGACCUCAGGCCCGAAGCGUGGCGGCACCUGCCGCCGGUGGUAAAAAAGAUCGGAAGAGCACACGUCU [U7G U8G G9U U10C U11C C12U C13A] | 1.18
GGGUCGGGUCCUUAUAAUCGCGUGGAUAUGGCACGCAAGUUUCUACCGGGCACCGUAAAUGUCCGACUGGAGCCGUUCGGGCGGCUAUAAACAGACCUCAGGCCCGAAGCGUGGCGGCACCUGCCGCCGGUGGUAAAAAAGAUCGGAAGAGCACACGUCU [U7G U8G G9U U10C U11C C12U C13U] | 1.37
GGGUCGGGUCCUCAUAAUCGCGUGGAUAUGGCACGCAAGUUUCUACCGGGCACCGUAAAUGUCCGACUGGAGCCGUUCGGGCGGCUAUAAACAGACCUCAGGCCCGAAGCGUGGCGGCACCUGCCGCCGGUGGUAAAAAAGAUCGGAAGAGCACACGUCU [U7G U8G G9U U10C U11C C12U] | 1.53
GGGUCGGGUCCGCAUAAUCGCGUGGAUAUGGCACGCAAGUUUCUACCGGGCACCGUAAAUGUCCGACUGGAGCCGUUCGGGCGGCUAUAAACAGACCUCAGGCCCGAAGCGUGGCGGCACCUGCCGCCGGUGGUAAAAAAGAUCGGAAGAGCACACGUCU [U7G U8G G9U U10C U11C C12G] | 1.46
GGGUCGGGUCCACAUAAUCGCGUGGAUAUGGCACGCAAGUUUCUACCGGGCACCGUAAAUGUCCGACUGGAGCCGUUCGGGCGGCUAUAAACAGACCUCAGGCCCGAAGCGUGGCGGCACCUGCCGCCGGUGGUAAAAAAGAUCGGAAGAGCACACGUCU [U7G U8G G9U U10C U11C C12A] | 1.46
GGGUCGGGUCCGGAUAAUCGCGUGGAUAUGGCACGCAAGUUUCUACCGGGCACCGUAAAUGUCCGACUGGAGCCGUUCGGGCGGCUAUAAACAGACCUCAGGCCCGAAGCGUGGCGGCACCUGCCGCCGGUGGUAAAAAAGAUCGGAAGAGCACACGUCU [U7G U8G G9U U10C U11C C12G C13G] | 1.12
GGGUCGGGUCCGUAUAAUCGCGUGGAUAUGGCACGCAAGUUUCUACCGGGCACCGUAAAUGUCCGACUGGAGCCGUUCGGGCGGCUAUAAACAGACCUCAGGCCCGAAGCGUGGCGGCACCUGCCGCCGGUGGUAAAAAAGAUCGGAAGAGCACACGUCU [U7G U8G G9U U10C U11C C12G C13U] | 1.33
GGGUCGGGUCCGAAUAAUCGCGUGGAUAUGGCACGCAAGUUUCUACCGGGCACCGUAAAUGUCCGACUGGAGCCGUUCGGGCGGCUAUAAACAGACCUCAGGCCCGAAGCGUGGCGGCACCUGCCGCCGGUGGUAAAAAAGAUCGGAAGAGCACACGUCU [U7G U8G G9U U10C U11C C12G C13A] | 1.19
GGGUCGGGUCUUUAUAAUCGCGUGGAUAUGGCACGCAAGUUUCUACCGGGCACCGUAAAUGUCCGACUGGAGCCGUUCGGGCGGCUAUAAACAGACCUCAGGCCCGAAGCGUGGCGGCACCUGCCGCCGGUGGUAAAAAAGAUCGGAAGAGCACACGUCU [U7G U8G G9U U10C C12U C13U] | 1.35
GGGUCGGGUCUUGAUAAUCGCGUGGAUAUGGCACGCAAGUUUCUACCGGGCACCGUAAAUGUCCGACUGGAGCCGUUCGGGCGGCUAUAAACAGACCUCAGGCCCGAAGCGUGGCGGCACCUGCCGCCGGUGGUAAAAAAGAUCGGAAGAGCACACGUCU [U7G U8G G9U U10C C12U C13G] | 1.36

Variant | aptazyme ON/OFF ratio
GGGUCGGGUCUUAAUAAUCGCGUGGAUAUGGCACGCAAGUUUCUACCGGGCACCGUAAAUGUCCGACUGGAGCCGUUCGGGCGGCUAUAAACAGACCUCAGGCCCGAAGCGUGGCGGCACCUGCCGCCGGUGGUAAAAAAGAUCGGAAGAGCACACGUCU [U7G U8G G9U U10C C12U C13A] | 1.22
GGGUCGGGUCAUAAUAAUCGCGUGGAUAUGGCACGCAAGUUUCUACCGGGCACCGUAAAUGUCCGACUGGAGCCGUUCGGGCGGCUAUAAACAGACCUCAGGCCCGAAGCGUGGCGGCACCUGCCGCCGGUGGUAAAAAAGAUCGGAAGAGCACACGUCU [U7G U8G G9U U10C U11A C12U C13A] | 1.35
GGGUCGGGUCAUGAUAAUCGCGUGGAUAUGGCACGCAAGUUUCUACCGGGCACCGUAAAUGUCCGACUGGAGCCGUUCGGGCGGCUAUAAACAGACCUCAGGCCCGAAGCGUGGCGGCACCUGCCGCCGGUGGUAAAAAAGAUCGGAAGAGCACACGUCU [U7G U8G G9U U10C U11A C12U C13G] | 1.37
GGGUCGGGUCAUUAUAAUCGCGUGGAUAUGGCACGCAAGUUUCUACCGGGCACCGUAAAUGUCCGACUGGAGCCGUUCGGGCGGCUAUAAACAGACCUCAGGCCCGAAGCGUGGCGGCACCUGCCGCCGGUGGUAAAAAAGAUCGGAAGAGCACACGUCU [U7G U8G G9U U10C U11A C12U C13U] | 1.36
GGGUCGGGUCACCAUAAUCGCGUGGAUAUGGCACGCAAGUUUCUACCGGGCACCGUAAAUGUCCGACUGGAGCCGUUCGGGCGGCUAUAAACAGACCUCAGGCCCGAAGCGUGGCGGCACCUGCCGCCGGUGGUAAAAAAGAUCGGAAGAGCACACGUCU [U7G U8G G9U U10C U11A] | 1.47
GGGUCGGGUCCCCAUAAUCGCGUGGAUAUGGCACGCAAGUUUCUACCGGGCACCGUAAAUGUCCGACUGGAGCCGUUCGGGCGGCUAUAAACAGACCUCAGGCCCGAAGCGUGGCGGCACCUGCCGCCGGUGGUAAAAAAGAUCGGAAGAGCACACGUCU [U7G U8G G9U U10C U11C] | 2.05
GGGUCGGGUCACUAUAAUCGCGUGGAUAUGGCACGCAAGUUUCUACCGGGCACCGUAAAUGUCCGACUGGAGCCGUUCGGGCGGCUAUAAACAGACCUCAGGCCCGAAGCGUGGCGGCACCUGCCGCCGGUGGUAAAAAAGAUCGGAAGAGCACACGUCU [U7G U8G G9U U10C U11A C13U] | 1.23
GGGUCGGGUCACGAUAAUCGCGUGGAUAUGGCACGCAAGUUUCUACCGGGCACCGUAAAUGUCCGACUGGAGCCGUUCGGGCGGCUAUAAACAGACCUCAGGCCCGAAGCGUGGCGGCACCUGCCGCCGGUGGUAAAAAAGAUCGGAAGAGCACACGUCU [U7G U8G G9U U10C U11A C13G] | 1.23
GGGUCGGGUCACAAUAAUCGCGUGGAUAUGGCACGCAAGUUUCUACCGGGCACCGUAAAUGUCCGACUGGAGCCGUUCGGGCGGCUAUAAACAGACCUCAGGCCCGAAGCGUGGCGGCACCUGCCGCCGGUGGUAAAAAAGAUCGGAAGAGCACACGUCU [U7G U8G G9U U10C U11A C13A] | 1.38
GGGUCGGGUCCAAAUAAUCGCGUGGAUAUGGCACGCAAGUUUCUACCGGGCACCGUAAAUGUCCGACUGGAGCCGUUCGGGCGGCUAUAAACAGACCUCAGGCCCGAAGCGUGGCGGCACCUGCCGCCGGUGGUAAAAAAGAUCGGAAGAGCACACGUCU [U7G U8G G9U U10C U11C C12A C13A] | 1.33
GGGUCGGGUCCAUAUAAUCGCGUGGAUAUGGCACGCAAGUUUCUACCGGGCACCGUAAAUGUCCGACUGGAGCCGUUCGGGCGGCUAUAAACAGACCUCAGGCCCGAAGCGUGGCGGCACCUGCCGCCGGUGGUAAAAAAGAUCGGAAGAGCACACGUCU [U7G U8G G9U U10C U11C C12A C13U] | 1.53
GGGUCGGGUCCAGAUAAUCGCGUGGAUAUGGCACGCAAGUUUCUACCGGGCACCGUAAAUGUCCGACUGGAGCCGUUCGGGCGGCUAUAAACAGACCUCAGGCCCGAAGCGUGGCGGCACCUGCCGCCGGUGGUAAAAAAGAUCGGAAGAGCACACGUCU [U7G U8G G9U U10C U11C C12A C13G] | 1.3
GGGUCGGGUCAGAAUAAUCGCGUGGAUAUGGCACGCAAGUUUCUACCGGGCACCGUAAAUGUCCGACUGGAGCCGUUCGGGCGGCUAUAAACAGACCUCAGGCCCGAAGCGUGGCGGCACCUGCCGCCGGUGGUAAAAAAGAUCGGAAGAGCACACGUCU [U7G U8G G9U U10C U11A C12G C13A] | 1.14
GGGUCGGGUCAGGAUAAUCGCGUGGAUAUGGCACGCAAGUUUCUACCGGGCACCGUAAAUGUCCGACUGGAGCCGUUCGGGCGGCUAUAAACAGACCUCAGGCCCGAAGCGUGGCGGCACCUGCCGCCGGUGGUAAAAAAGAUCGGAAGAGCACACGUCU [U7G U8G G9U U10C U11A C12G C13G] | 1.15
GGGUCGGGUCAGUAUAAUCGCGUGGAUAUGGCACGCAAGUUUCUACCGGGCACCGUAAAUGUCCGACUGGAGCCGUUCGGGCGGCUAUAAACAGACCUCAGGCCCGAAGCGUGGCGGCACCUGCCGCCGGUGGUAAAAAAGAUCGGAAGAGCACACGUCU [U7G U8G G9U U10C U11A C12G C13U] | 1.45
GGGUCGGGUCAAAAUAAUCGCGUGGAUAUGGCACGCAAGUUUCUACCGGGCACCGUAAAUGUCCGACUGGAGCCGUUCGGGCGGCUAUAAACAGACCUCAGGCCCGAAGCGUGGCGGCACCUGCCGCCGGUGGUAAAAAAGAUCGGAAGAGCACACGUCU [U7G U8G G9U U10C U11A C12A C13A] | 1.3
GGGUCGGGUCAAUAUAAUCGCGUGGAUAUGGCACGCAAGUUUCUACCGGGCACCGUAAAUGUCCGACUGGAGCCGUUCGGGCGGCUAUAAACAGACCUCAGGCCCGAAGCGUGGCGGCACCUGCCGCCGGUGGUAAAAAAGAUCGGAAGAGCACACGUCU [U7G U8G G9U U10C U11A C12A C13U] | 1.33
GGGUCGGGUCAAGAUAAUCGCGUGGAUAUGGCACGCAAGUUUCUACCGGGCACCGUAAAUGUCCGACUGGAGCCGUUCGGGCGGCUAUAAACAGACCUCAGGCCCGAAGCGUGGCGGCACCUGCCGCCGGUGGUAAAAAAGAUCGGAAGAGCACACGUCU [U7G U8G G9U U10C U11A C12A C13G] | 1.24
